The experiment deals with gp120 from HIV-1 strain SF162 (clade B) (HIV-1 group M subtype B, isolate SF162, UniProt P19550, strain). Put plainly: SPR. Background: SPR reads the build-up and loss of mass on a sensor chip optically.

This is an account of results in article PMC3919625 (Cell reports, 2013).

B1: 2G12 IgG monomer (antibody, V domains shown)
VH: EVQLVESGGGLVKAGGSLILSCGVSNFRISAHTMNWVRRVPGGGLEWVASISTSSTYRDYADAVKGRFTVSRDDLEDFVYLQMHKMRVEDTAIYYCARKGSDRLSDNDPFDAWGPGTVVTVSP
VL: VVMTQSPSTLSASVGDTITITCRASQSIETWLAWYQQKPGKAPKLLIYKASTLKTGVPSRFSGSGSGTEFTLTISGLQFDDFATYHCQHYAGYSATFGQGTRVEIK
Turning to B1, the binding result is reported as “binds”.

B2: 2G12 IgG dimer (antibody, V domains shown)
VH: B1 VH
VL: B1 VL
B2: the binding result was “binds”.
